We go through one molecule from patent US5856148A, “Materials and methods for biosynthesis of serine and serine-related products” (priority 1991, dated 1999).

The series relates to 3-phosphoglycerate dehydrogenase (PGD). The series can be described thus: assay of PGD activity (relative catalytic activity). Type of series: biochemical, E. coli. An excerpt: While not critical to the invention, the assay of PGD activity is generally necessary in order to establish the degree of serine sensitivity of the altered enzyme. As is well known in the art, enzyme activity is a function of the total number of enzyme molecules and the catalytic activity of each molecule. Thus, in comparing the catalytic activity of PGD feedback variants, steps must be taken to adequately control for the relative number of PGD molecules for samples in which relative catalytic activity is to be compared. There are a number of ways in which this may be accomplished. However, since it is difficult to adequately establish the level of gene expression in cells transformed with truncated serA genes (due to decreased viability), the most suitable way to compare PGD activity produced from various constructs and the wild type is to chromosomally integrate the altered serA gene containing standard regulatory elements in a single copy, followed by harvesting the transformants and determination of the relative catalytic activity as compared to PGD from wild type cells.
Any method suitable for the measurement of PGD activity may be employed. PGD activity may be measured through detection of either the forward or the reverse reaction by the method of John C. McKitrick and Lewis I. Pizer, J. Bacteriol., 141:235-245 (1980). […]

B1: WT: wild-type E. coli 3-phosphoglycerate dehydrogenase (serA), C-terminal sequence SEQ ID NO: 2 (protein, UniProt P0A9T0 2-410, looked up)
D-3-phosphoglycerate …: AKVSLEKDKIKFLLVEGVHQKALESLRAAGYTNIEFHKGALDDEQLKESIRDAHFIGLRSRTHLTEDVINAAEKLVAIGCFCIGTNQVDLDAAAKRGIPVFNAPFSNTRSVAELVIGELLLLLRGVPEANAKAHRGVWNKLAAGSFEARGKKLGIIGYGHIGTQLGILAESLGMYVYFYDIENKLPLGNATQVQHLSDLLNMSDVVSLHVPENPSTKNMMGAKEISLMKPGSLLINASRGTVVDIPALCDALASKHLAGAAIDVFPTEPATNSDPFTSPLCEFDNVLLTPHIGGSTQEAQENIGLEVAGKLIKYSDNGSTLSAVNFPEVSLPLHGGRRLMHIHENRPGVLTALNKIFAEQGVNIAAQYLQTSAQMGYVVIDIEADEDVAEKALQAMKAIPGTIRARLLY
Turning to B1, the “Units (relative catalytic activity)” value (Table 1, following chromosomal integration of the construct) worked out at 0.05 Units. This molecule displayed a Units (Table 1A, wildtype and mutated serA alleles) of 0.05 Units.
